# According to the RNAGym collection of RNA variant scans (doi:10.1021/acssynbio.7b00057):
# B1: Pistol ribozyme (parent)
# chain: GGGUCGUUGUUCCAUAAUCGCGUGGAUAUGGCACGCAAGUUUCUACCGGGCACCGUAAAUGUCCGACUGGAGCCGUUCGGGCGGCUAUAAACAGACCUCAGGCCCGAAGCGUGGCGGCACCUGCCGCCGGUGGUAAAAAAGAUCGGAAGAGCACACGUCU
# Variants of: B1
# Assay: aptazyme ON/OFF ratio, guanine; higher = stronger switching; co-transcriptional cleavage with and without guanine
row,Variant,aptazyme ON/OFF ratio
1,GGGUCGUAUCUGAAUAAUCGCGUGGAUAUGGCACGCAAGUUUCUACCGGGCACCGUAAAUGUCCGACUGGAGCCGUUCGGGCGGCUAUAAACAGACCUCAGGCCCGAAGCGUGGCGGCACCUGCCGCCGGUGGUAAAAAAGAUCGGAAGAGCACACGUCU [U8A G9U U10C C12G C13A],1.15
2,GGGUCGUAUCUGUAUAAUCGCGUGGAUAUGGCACGCAAGUUUCUACCGGGCACCGUAAAUGUCCGACUGGAGCCGUUCGGGCGGCUAUAAACAGACCUCAGGCCCGAAGCGUGGCGGCACCUGCCGCCGGUGGUAAAAAAGAUCGGAAGAGCACACGUCU [U8A G9U U10C C12G C13U],1.25
3,GGGUCGUAUCUGGAUAAUCGCGUGGAUAUGGCACGCAAGUUUCUACCGGGCACCGUAAAUGUCCGACUGGAGCCGUUCGGGCGGCUAUAAACAGACCUCAGGCCCGAAGCGUGGCGGCACCUGCCGCCGGUGGUAAAAAAGAUCGGAAGAGCACACGUCU [U8A G9U U10C C12G C13G],1.18
4,GGGUCGUAUAGUGAUAAUCGCGUGGAUAUGGCACGCAAGUUUCUACCGGGCACCGUAAAUGUCCGACUGGAGCCGUUCGGGCGGCUAUAAACAGACCUCAGGCCCGAAGCGUGGCGGCACCUGCCGCCGGUGGUAAAAAAGAUCGGAAGAGCACACGUCU [U8A G9U U10A U11G C12U C13G],1.17
5,GGGUCGUAUAGUAAUAAUCGCGUGGAUAUGGCACGCAAGUUUCUACCGGGCACCGUAAAUGUCCGACUGGAGCCGUUCGGGCGGCUAUAAACAGACCUCAGGCCCGAAGCGUGGCGGCACCUGCCGCCGGUGGUAAAAAAGAUCGGAAGAGCACACGUCU [U8A G9U U10A U11G C12U C13A],1.27
6,GGGUCGUAUAGUUAUAAUCGCGUGGAUAUGGCACGCAAGUUUCUACCGGGCACCGUAAAUGUCCGACUGGAGCCGUUCGGGCGGCUAUAAACAGACCUCAGGCCCGAAGCGUGGCGGCACCUGCCGCCGGUGGUAAAAAAGAUCGGAAGAGCACACGUCU [U8A G9U U10A U11G C12U C13U],1.4
7,GGGUCGUAUAGAUAUAAUCGCGUGGAUAUGGCACGCAAGUUUCUACCGGGCACCGUAAAUGUCCGACUGGAGCCGUUCGGGCGGCUAUAAACAGACCUCAGGCCCGAAGCGUGGCGGCACCUGCCGCCGGUGGUAAAAAAGAUCGGAAGAGCACACGUCU [U8A G9U U10A U11G C12A C13U],1.21
8,GGGUCGUAUAGAGAUAAUCGCGUGGAUAUGGCACGCAAGUUUCUACCGGGCACCGUAAAUGUCCGACUGGAGCCGUUCGGGCGGCUAUAAACAGACCUCAGGCCCGAAGCGUGGCGGCACCUGCCGCCGGUGGUAAAAAAGAUCGGAAGAGCACACGUCU [U8A G9U U10A U11G C12A C13G],1.19
9,GGGUCGUAUAGAAAUAAUCGCGUGGAUAUGGCACGCAAGUUUCUACCGGGCACCGUAAAUGUCCGACUGGAGCCGUUCGGGCGGCUAUAAACAGACCUCAGGCCCGAAGCGUGGCGGCACCUGCCGCCGGUGGUAAAAAAGAUCGGAAGAGCACACGUCU [U8A G9U U10A U11G C12A C13A],1.01
10,GGGUCGUAUAGCGAUAAUCGCGUGGAUAUGGCACGCAAGUUUCUACCGGGCACCGUAAAUGUCCGACUGGAGCCGUUCGGGCGGCUAUAAACAGACCUCAGGCCCGAAGCGUGGCGGCACCUGCCGCCGGUGGUAAAAAAGAUCGGAAGAGCACACGUCU [U8A G9U U10A U11G C13G],1.08
11,GGGUCGUAUAGCUAUAAUCGCGUGGAUAUGGCACGCAAGUUUCUACCGGGCACCGUAAAUGUCCGACUGGAGCCGUUCGGGCGGCUAUAAACAGACCUCAGGCCCGAAGCGUGGCGGCACCUGCCGCCGGUGGUAAAAAAGAUCGGAAGAGCACACGUCU [U8A G9U U10A U11G C13U],1.25
12,GGGUCGUAUAGCAAUAAUCGCGUGGAUAUGGCACGCAAGUUUCUACCGGGCACCGUAAAUGUCCGACUGGAGCCGUUCGGGCGGCUAUAAACAGACCUCAGGCCCGAAGCGUGGCGGCACCUGCCGCCGGUGGUAAAAAAGAUCGGAAGAGCACACGUCU [U8A G9U U10A U11G C13A],1.23
13,GGGUCGUAUAGCCAUAAUCGCGUGGAUAUGGCACGCAAGUUUCUACCGGGCACCGUAAAUGUCCGACUGGAGCCGUUCGGGCGGCUAUAAACAGACCUCAGGCCCGAAGCGUGGCGGCACCUGCCGCCGGUGGUAAAAAAGAUCGGAAGAGCACACGUCU [U8A G9U U10A U11G],1.42
14,GGGUCGUAUCUCCAUAAUCGCGUGGAUAUGGCACGCAAGUUUCUACCGGGCACCGUAAAUGUCCGACUGGAGCCGUUCGGGCGGCUAUAAACAGACCUCAGGCCCGAAGCGUGGCGGCACCUGCCGCCGGUGGUAAAAAAGAUCGGAAGAGCACACGUCU [U8A G9U U10C],1.88
15,GGGUCGUAUACCUAUAAUCGCGUGGAUAUGGCACGCAAGUUUCUACCGGGCACCGUAAAUGUCCGACUGGAGCCGUUCGGGCGGCUAUAAACAGACCUCAGGCCCGAAGCGUGGCGGCACCUGCCGCCGGUGGUAAAAAAGAUCGGAAGAGCACACGUCU [U8A G9U U10A U11C C13U],1.02
16,GGGUCGUAUACCGAUAAUCGCGUGGAUAUGGCACGCAAGUUUCUACCGGGCACCGUAAAUGUCCGACUGGAGCCGUUCGGGCGGCUAUAAACAGACCUCAGGCCCGAAGCGUGGCGGCACCUGCCGCCGGUGGUAAAAAAGAUCGGAAGAGCACACGUCU [U8A G9U U10A U11C C13G],1.08
17,GGGUCGUAUACCAAUAAUCGCGUGGAUAUGGCACGCAAGUUUCUACCGGGCACCGUAAAUGUCCGACUGGAGCCGUUCGGGCGGCUAUAAACAGACCUCAGGCCCGAAGCGUGGCGGCACCUGCCGCCGGUGGUAAAAAAGAUCGGAAGAGCACACGUCU [U8A G9U U10A U11C C13A],1.04
18,GGGUCGUAUACUGAUAAUCGCGUGGAUAUGGCACGCAAGUUUCUACCGGGCACCGUAAAUGUCCGACUGGAGCCGUUCGGGCGGCUAUAAACAGACCUCAGGCCCGAAGCGUGGCGGCACCUGCCGCCGGUGGUAAAAAAGAUCGGAAGAGCACACGUCU [U8A G9U U10A U11C C12U C13G],1.22

row,Variant,aptazyme ON/OFF ratio
1,GGGUCGUAUACUUAUAAUCGCGUGGAUAUGGCACGCAAGUUUCUACCGGGCACCGUAAAUGUCCGACUGGAGCCGUUCGGGCGGCUAUAAACAGACCUCAGGCCCGAAGCGUGGCGGCACCUGCCGCCGGUGGUAAAAAAGAUCGGAAGAGCACACGUCU [U8A G9U U10A U11C C12U C13U],1.18
2,GGGUCGUAUCUUCAUAAUCGCGUGGAUAUGGCACGCAAGUUUCUACCGGGCACCGUAAAUGUCCGACUGGAGCCGUUCGGGCGGCUAUAAACAGACCUCAGGCCCGAAGCGUGGCGGCACCUGCCGCCGGUGGUAAAAAAGAUCGGAAGAGCACACGUCU [U8A G9U U10C C12U],1.08
3,GGGUCGUAUCUACAUAAUCGCGUGGAUAUGGCACGCAAGUUUCUACCGGGCACCGUAAAUGUCCGACUGGAGCCGUUCGGGCGGCUAUAAACAGACCUCAGGCCCGAAGCGUGGCGGCACCUGCCGCCGGUGGUAAAAAAGAUCGGAAGAGCACACGUCU [U8A G9U U10C C12A],1.04
4,GGGUCGUAUCUGCAUAAUCGCGUGGAUAUGGCACGCAAGUUUCUACCGGGCACCGUAAAUGUCCGACUGGAGCCGUUCGGGCGGCUAUAAACAGACCUCAGGCCCGAAGCGUGGCGGCACCUGCCGCCGGUGGUAAAAAAGAUCGGAAGAGCACACGUCU [U8A G9U U10C C12G],1.04
5,GGGUCGUAUCUCGAUAAUCGCGUGGAUAUGGCACGCAAGUUUCUACCGGGCACCGUAAAUGUCCGACUGGAGCCGUUCGGGCGGCUAUAAACAGACCUCAGGCCCGAAGCGUGGCGGCACCUGCCGCCGGUGGUAAAAAAGAUCGGAAGAGCACACGUCU [U8A G9U U10C C13G],1.04
6,GGGUCGUAUCUCAAUAAUCGCGUGGAUAUGGCACGCAAGUUUCUACCGGGCACCGUAAAUGUCCGACUGGAGCCGUUCGGGCGGCUAUAAACAGACCUCAGGCCCGAAGCGUGGCGGCACCUGCCGCCGGUGGUAAAAAAGAUCGGAAGAGCACACGUCU [U8A G9U U10C C13A],1.08
7,GGGUCGUAUAGGUAUAAUCGCGUGGAUAUGGCACGCAAGUUUCUACCGGGCACCGUAAAUGUCCGACUGGAGCCGUUCGGGCGGCUAUAAACAGACCUCAGGCCCGAAGCGUGGCGGCACCUGCCGCCGGUGGUAAAAAAGAUCGGAAGAGCACACGUCU [U8A G9U U10A U11G C12G C13U],1.31
8,GGGUCGUAUAGGAAUAAUCGCGUGGAUAUGGCACGCAAGUUUCUACCGGGCACCGUAAAUGUCCGACUGGAGCCGUUCGGGCGGCUAUAAACAGACCUCAGGCCCGAAGCGUGGCGGCACCUGCCGCCGGUGGUAAAAAAGAUCGGAAGAGCACACGUCU [U8A G9U U10A U11G C12G C13A],1.1
9,GGGUCGUAUAGGGAUAAUCGCGUGGAUAUGGCACGCAAGUUUCUACCGGGCACCGUAAAUGUCCGACUGGAGCCGUUCGGGCGGCUAUAAACAGACCUCAGGCCCGAAGCGUGGCGGCACCUGCCGCCGGUGGUAAAAAAGAUCGGAAGAGCACACGUCU [U8A G9U U10A U11G C12G C13G],1.24
10,GGGUCGUAUAGACAUAAUCGCGUGGAUAUGGCACGCAAGUUUCUACCGGGCACCGUAAAUGUCCGACUGGAGCCGUUCGGGCGGCUAUAAACAGACCUCAGGCCCGAAGCGUGGCGGCACCUGCCGCCGGUGGUAAAAAAGAUCGGAAGAGCACACGUCU [U8A G9U U10A U11G C12A],1.07
11,GGGUCGUAUAGGCAUAAUCGCGUGGAUAUGGCACGCAAGUUUCUACCGGGCACCGUAAAUGUCCGACUGGAGCCGUUCGGGCGGCUAUAAACAGACCUCAGGCCCGAAGCGUGGCGGCACCUGCCGCCGGUGGUAAAAAAGAUCGGAAGAGCACACGUCU [U8A G9U U10A U11G C12G],1.24
12,GGGUCGUAUAGUCAUAAUCGCGUGGAUAUGGCACGCAAGUUUCUACCGGGCACCGUAAAUGUCCGACUGGAGCCGUUCGGGCGGCUAUAAACAGACCUCAGGCCCGAAGCGUGGCGGCACCUGCCGCCGGUGGUAAAAAAGAUCGGAAGAGCACACGUCU [U8A G9U U10A U11G C12U],1.37
13,GGGUCGUAUCUUAAUAAUCGCGUGGAUAUGGCACGCAAGUUUCUACCGGGCACCGUAAAUGUCCGACUGGAGCCGUUCGGGCGGCUAUAAACAGACCUCAGGCCCGAAGCGUGGCGGCACCUGCCGCCGGUGGUAAAAAAGAUCGGAAGAGCACACGUCU [U8A G9U U10C C12U C13A],1.08
14,GGGUCGUAUCUUGAUAAUCGCGUGGAUAUGGCACGCAAGUUUCUACCGGGCACCGUAAAUGUCCGACUGGAGCCGUUCGGGCGGCUAUAAACAGACCUCAGGCCCGAAGCGUGGCGGCACCUGCCGCCGGUGGUAAAAAAGAUCGGAAGAGCACACGUCU [U8A G9U U10C C12U C13G],1.07
15,GGGUCGUAUCUUUAUAAUCGCGUGGAUAUGGCACGCAAGUUUCUACCGGGCACCGUAAAUGUCCGACUGGAGCCGUUCGGGCGGCUAUAAACAGACCUCAGGCCCGAAGCGUGGCGGCACCUGCCGCCGGUGGUAAAAAAGAUCGGAAGAGCACACGUCU [U8A G9U U10C C12U C13U],1.18
16,GGGUCGUAUCUAGAUAAUCGCGUGGAUAUGGCACGCAAGUUUCUACCGGGCACCGUAAAUGUCCGACUGGAGCCGUUCGGGCGGCUAUAAACAGACCUCAGGCCCGAAGCGUGGCGGCACCUGCCGCCGGUGGUAAAAAAGAUCGGAAGAGCACACGUCU [U8A G9U U10C C12A C13G],1.06
17,GGGUCGUAUCUAUAUAAUCGCGUGGAUAUGGCACGCAAGUUUCUACCGGGCACCGUAAAUGUCCGACUGGAGCCGUUCGGGCGGCUAUAAACAGACCUCAGGCCCGAAGCGUGGCGGCACCUGCCGCCGGUGGUAAAAAAGAUCGGAAGAGCACACGUCU [U8A G9U U10C C12A C13U],1.05
18,GGGUCGUAUCUAAAUAAUCGCGUGGAUAUGGCACGCAAGUUUCUACCGGGCACCGUAAAUGUCCGACUGGAGCCGUUCGGGCGGCUAUAAACAGACCUCAGGCCCGAAGCGUGGCGGCACCUGCCGCCGGUGGUAAAAAAGAUCGGAAGAGCACACGUCU [U8A G9U U10C C12A C13A],1.09
